Values joined by “and” are separate entries in the source; they are usually repeats but may differ in a detail not shown here. Equal entries are not always repeated.
Target: CdiA-CT^EC536_H178A (catalytically inactive C-terminal toxin domain of CdiA from uropathogenic E. coli 536) (uropathogenic Escherichia coli 536)
Assay: cryo-EM structure

B1: O-acetylserine sulfhydrylase A (CysK) (enzyme)
chain: MSKIFEDNSLTIGHTPLVRLNRIGNGRILAKVESRNPSFSVKCRIGANMIWDAEKRGVLKPGVELVEPTSGNTGIALAYVAAARGYKLTLTMPETMSIERRKLLKALGANLVLTEGAKGMKGAIQKAEEIVASNPEKYLLLQQFSNPANPEIHEKTTGPEIWEDTDGQVDVFIAGVGTGGTLTGVSRYIKGTKGKTDLISVAVEPTDSPVIAQALAGEEIKPGPHKIQGIGAGFIPANLDLKLVDKVIGITNEEAISTARRLMEEEGILAGISSGAAVAAALKLQEDESFTNKNIVVILPSSGERYLSTALFADLFTEKELQQ
modifications: PLP (N'-pyridoxyl-lysine-5'-monophosphate); position not given
- stoichiometry N (CysK per CdiA-CT): 2 and 1

From article PMC11724271
